The target of assay [1] is T1, L1CAM on the human ovarian cancer cell line SKOV3 (human, UniProt P32004 20-1257).
T1 construct: whole, on cells; The cells express L1CAM but not preS1; also called SKOV3 cells
As to the kind of experiment: flow cytometry on SKOV3 cells, anti-human IgG Fc-FITC. Background: In flow cytometry, cells or beads pass a laser one at a time.

In assay [2] the target is T2, GST-preS1(1-56)-strep of HBV genotype C (hepatitis B virus genotype C, UniProt P08515 1-218 = GST).
T2 construct: Expressed in E. coli; also called wild type preS1 antigen; recombinant preS1 of genotype C; not shown: strep tag
As to the kind of experiment: indirect ELISA, genotype C GST-preS1(1-56)-strep coated (100 ng), antibody from culture supernatant, anti-human IgG Fc-HRP. Background: In an ELISA, binding on a coated surface is turned into a signal by an enzyme label.

Assay [3] addresses T3, GST-preS1(1-56)-strep of HBV genotype A (hepatitis B virus genotype A, UniProt P08515 1-218 = GST).
T3 construct: Expressed in E. coli; also called recombinant preS1 of HBV genotype A; preS1 antigen of genotype A; not shown: strep tag
The experiment in a line: indirect ELISA, genotype A GST-preS1(1-56)-strep (NPLGFFP) coated, serially diluted antibody.

In assay [4] the target is T4, GST-preS1(1-56)-strep of HBV genotype D (hepatitis B virus genotype D, UniProt P08515 1-218 = GST).
T4 construct: Expressed in E. coli; also called recombinant preS1 of genotype D; not shown: strep tag
The experiment in a line: indirect ELISA, GST-preS1(1-56)-strep coated, serially diluted AbS0, anti-human IgG Fc-HRP.

In assay [5] the target is T5, GST-preS1(1-56)-strep of HBV genotype B (hepatitis B virus genotype B, UniProt P08515 1-218 = GST).
T5 construct: Expressed in E. coli; also called recombinant preS1 of genotype B; not shown: strep tag
The description is as above.

Assay [6] concerns the target T3, GST-preS1(1-56)-strep of HBV genotype A. The description is as above.
Assay [7] has as its target T2, GST-preS1(1-56)-strep of HBV genotype C. Described as above.
Assay [8] deals with T3, GST-preS1(1-56)-strep of HBV genotype A. The experiment in a line: BLI (Octet RED384), antibody captured on anti-human Fc tips, antigen 25-1.5625 nM in solution, 1:1 model.
The target in the next assay is T6, BSA (Bos taurus, UniProt P02769).
T6 construct: control antigen of the phage ELISA; also called bovine serum albumin
As to the kind of experiment: indirect ELISA of monoclonal Fab phage on coated antigen, anti-M13-HRP.

T3 sequence (P08515 whole entry): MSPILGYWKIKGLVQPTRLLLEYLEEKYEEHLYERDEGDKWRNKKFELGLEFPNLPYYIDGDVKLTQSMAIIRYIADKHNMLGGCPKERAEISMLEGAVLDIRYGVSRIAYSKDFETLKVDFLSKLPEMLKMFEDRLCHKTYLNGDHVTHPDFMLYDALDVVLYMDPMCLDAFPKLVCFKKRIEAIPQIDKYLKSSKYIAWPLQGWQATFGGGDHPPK
T2 sequence (P08515 whole entry): as above
T1 sequence (P32004 20-1257): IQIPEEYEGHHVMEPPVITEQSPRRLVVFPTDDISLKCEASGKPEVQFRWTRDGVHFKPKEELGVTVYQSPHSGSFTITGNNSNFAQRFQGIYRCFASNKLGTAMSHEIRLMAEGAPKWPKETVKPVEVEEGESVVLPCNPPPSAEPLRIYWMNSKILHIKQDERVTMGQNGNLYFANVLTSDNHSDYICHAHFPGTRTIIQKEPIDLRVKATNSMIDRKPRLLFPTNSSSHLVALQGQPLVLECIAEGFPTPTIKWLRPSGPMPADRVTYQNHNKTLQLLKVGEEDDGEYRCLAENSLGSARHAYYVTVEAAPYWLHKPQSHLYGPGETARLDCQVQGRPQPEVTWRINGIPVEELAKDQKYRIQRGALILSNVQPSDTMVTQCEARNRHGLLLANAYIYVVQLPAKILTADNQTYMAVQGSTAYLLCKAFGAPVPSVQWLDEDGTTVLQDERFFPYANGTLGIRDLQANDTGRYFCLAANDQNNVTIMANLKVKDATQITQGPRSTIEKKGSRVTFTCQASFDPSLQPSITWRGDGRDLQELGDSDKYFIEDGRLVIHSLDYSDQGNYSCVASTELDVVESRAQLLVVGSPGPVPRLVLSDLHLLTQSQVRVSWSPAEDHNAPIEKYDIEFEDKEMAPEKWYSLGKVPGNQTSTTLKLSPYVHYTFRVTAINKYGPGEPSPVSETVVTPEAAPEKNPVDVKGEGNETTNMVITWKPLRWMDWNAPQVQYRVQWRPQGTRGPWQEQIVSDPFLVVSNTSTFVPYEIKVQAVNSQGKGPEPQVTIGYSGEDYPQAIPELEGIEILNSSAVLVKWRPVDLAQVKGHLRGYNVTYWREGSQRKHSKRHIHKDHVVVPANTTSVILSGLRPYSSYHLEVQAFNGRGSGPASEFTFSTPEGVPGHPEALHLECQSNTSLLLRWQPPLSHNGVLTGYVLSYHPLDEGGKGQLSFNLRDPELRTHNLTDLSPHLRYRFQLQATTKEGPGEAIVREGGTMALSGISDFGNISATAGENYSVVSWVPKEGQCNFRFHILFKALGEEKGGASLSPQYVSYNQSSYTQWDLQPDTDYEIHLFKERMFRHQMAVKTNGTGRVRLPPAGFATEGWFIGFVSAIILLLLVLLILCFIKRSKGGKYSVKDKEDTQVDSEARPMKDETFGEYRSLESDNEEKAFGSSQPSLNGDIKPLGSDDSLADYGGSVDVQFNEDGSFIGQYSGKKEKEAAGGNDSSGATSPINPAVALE
T4 sequence (P08515 whole entry): as the sequence (P08515 whole entry) above
T5 sequence (P08515 whole entry): as above
T6 sequence (P02769 25-607 limits assumed): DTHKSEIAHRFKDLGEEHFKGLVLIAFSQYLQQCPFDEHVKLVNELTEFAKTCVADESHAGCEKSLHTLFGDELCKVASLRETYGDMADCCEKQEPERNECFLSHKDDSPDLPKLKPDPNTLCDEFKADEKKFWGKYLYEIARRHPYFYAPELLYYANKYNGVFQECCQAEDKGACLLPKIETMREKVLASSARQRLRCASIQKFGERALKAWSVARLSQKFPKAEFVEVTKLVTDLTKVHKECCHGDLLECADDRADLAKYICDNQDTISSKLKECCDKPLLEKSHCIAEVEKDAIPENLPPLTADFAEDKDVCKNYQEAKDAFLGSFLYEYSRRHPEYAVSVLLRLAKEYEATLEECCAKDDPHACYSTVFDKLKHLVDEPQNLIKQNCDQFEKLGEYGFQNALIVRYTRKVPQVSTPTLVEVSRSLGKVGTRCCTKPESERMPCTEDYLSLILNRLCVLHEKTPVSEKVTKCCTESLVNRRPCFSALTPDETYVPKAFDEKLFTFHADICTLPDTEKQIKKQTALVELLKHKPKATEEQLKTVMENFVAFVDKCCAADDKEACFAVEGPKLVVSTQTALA

B1: AbS0 antibody (AbS0 Fab converted into human IgG1) (antibody, V domains shown)
VH: EVQLVESGGGLVQPGGSLRLSCAASGFTFSTYAMSWVRQAPGKGLEWVSSISQSGGYTNYADSVKGRFTISRDNSKNTLYLQMNSLRAEDTAVYYCAKVIYASLDYWGQGTLVTVSS
VL: DIQMTQSPSSLSASVGDRVTITCRASQSIASYLNWYQQKPGKAPKLLIYATSRLQSGVPSRFSGSGSGTDFTLTISSLQPEDFATYYCQQSYSSPYTFGQGTKVEIK
notes: also called AbS0 mAb; wild type AbS0
As to B1, in assay [1], the binding result was “no binding”. Also, the EC50 (read off the curve) (as a rule, the concentration that produces a half-maximal response) is approximately 0.003 µg/mL in assay [2]; approximately 0.06 µg/mL in [3]; approximately 0.04 µg/mL in assay [4]; approximately 0.04 µg/mL in [5]; approximately 0.04 µg/mL in [6]; approximately 0.04 µg/mL in assay [7]. Also, in assay [8], the affinity, expressed as Kd, was 0.5 nM. Also, in assay [8], the dissociation rate constant (koff) (in general, the rate constant with which the complex falls apart) was 0.000194 s⁻¹. Further, in assay [8], the kon (commonly a measure of how fast the partners come together) was found to be 392000 M⁻¹ s⁻¹.

B2: AbS0 Fab phage (Fab, V domains shown)
VH: B1 VH
VL: B1 VL
As for B2, the binding result with BSA is reported as “no binding”.
